Series [1] deals with the molecule itself. The experiment in a line: cryo-EM structure; apo-state Cas9/RNA-Csn2-Cas1-Cas2 supercomplex, assembled from purified proteins and purified by SEC in 20 mM HEPES pH 7.5, 250 mM NaCl; 3.9 Å. On the technique in general: Size exclusion chromatography separates by hydrodynamic size, large species first.
Series [2] concerns the molecule itself. Description: cryo-EM structure; preassembled Cas9/RNA-Csn2-Cas1-Cas2 supercomplex incubated with a 59-bp PAM-containing dsDNA at 4 °C for 30 min; Cas9-containing prespacer catching complex, State I 2.96 Å and State II 3.01 Å.
Series [3] addresses T1, Enterococcus faecalis Cas1-Cas2 integrase complex (Cas1_(4)-Cas2_(2) hexamer) (Enterococcus faecalis, UniProt A0A3N3GDE4 1-288; A0A3N3FLR9 1-109).
T1 construct: Cas1 of the Enterococcus faecalis type II-A CRISPR-Cas system, full length; as the chain of m3; Cas2 of the Enterococcus faecalis type II-A CRISPR-Cas system, full length; as the chain of m4; Complex formed beforehand; used as one partner in the gel filtration and DNA cleavage assays; also called Cas1-Cas2 hexamer; Cas1-Cas2 complex; source: E. coli BL21 Star (DE3); tag-cleaved Cas1 and Cas2 …
T1 sequence (looked up) 1: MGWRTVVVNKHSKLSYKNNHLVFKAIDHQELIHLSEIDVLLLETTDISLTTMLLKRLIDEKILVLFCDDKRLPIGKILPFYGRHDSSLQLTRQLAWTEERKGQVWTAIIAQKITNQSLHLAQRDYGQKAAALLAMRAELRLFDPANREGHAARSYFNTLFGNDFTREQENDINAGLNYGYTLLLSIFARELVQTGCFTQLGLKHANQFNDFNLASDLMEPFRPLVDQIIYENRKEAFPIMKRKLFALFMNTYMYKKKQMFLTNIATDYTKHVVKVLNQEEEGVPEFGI
T1 sequence (looked up) 2: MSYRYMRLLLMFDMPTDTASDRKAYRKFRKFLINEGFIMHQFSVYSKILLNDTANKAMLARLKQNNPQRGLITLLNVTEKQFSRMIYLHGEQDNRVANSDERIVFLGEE
Description: SEC; analytical SEC, Superdex 200 Increase 10/300 GL, 20 mM HEPES pH 7.5, 250 mM NaCl; Cas9/RNA, Csn2 and Cas1-Cas2 mixed; fractions analysed by SDS-PAGE (Coomassie). The note with it: both partners purified.

B1: Enterococcus faecalis Cas2 (natural protein, UniProt A0A3N3FLR9 1-109, looked up)
chain: MSYRYMRLLLMFDMPTDTASDRKAYRKFRKFLINEGFIMHQFSVYSKILLNDTANKAMLARLKQNNPQRGLITLLNVTEKQFSRMIYLHGEQDNRVANSDERIVFLGEE
notes: Cas2 of the Enterococcus faecalis type II-A CRISPR-Cas system, full-length gene amplified from E. faecalis genomic DNA; Cas2 was purified together with Cas1 (Cas1:Cas2 mixed 2:1) before use; also called EfaCas2; Cas2 dimer; source: E. coli BL21 Star (DE3), purified (Ni-NTA, SUMO protease cleavage, Superdex 200 SEC with Cas1)
Take B1: the stoichiometry N (usually a count of units in the complex or per binding partner) in series [1] is 2.

B2: Enterococcus faecalis Cas1 (enzyme, UniProt A0A3N3GDE4 1-288, looked up)
chain: MGWRTVVVNKHSKLSYKNNHLVFKAIDHQELIHLSEIDVLLLETTDISLTTMLLKRLIDEKILVLFCDDKRLPIGKILPFYGRHDSSLQLTRQLAWTEERKGQVWTAIIAQKITNQSLHLAQRDYGQKAAALLAMRAELRLFDPANREGHAARSYFNTLFGNDFTREQENDINAGLNYGYTLLLSIFARELVQTGCFTQLGLKHANQFNDFNLASDLMEPFRPLVDQIIYENRKEAFPIMKRKLFALFMNTYMYKKKQMFLTNIATDYTKHVVKVLNQEEEGVPEFGI
notes: Cas1 of the Enterococcus faecalis type II-A CRISPR-Cas system, full-length gene amplified from E. faecalis genomic DNA; Cas1 was purified together with Cas2 (mixed 2:1) before use; also called EfaCas1; Cas1 dimer; source: E. coli BL21 Star (DE3), purified (Ni-NTA, SUMO protease cleavage, Superdex 200 SEC with Cas2)
B2: in series [2], the “stoichiometry N” value came out at 2.

B3: Enterococcus faecalis Csn2 (natural protein, UniProt C7UDU4 1-219, looked up)
chain: MRVNFSLLEEPIEIEKATFLTIKDVQSFAHLVKLIYQYDGENELKLFDAQQKGLKPTELFVVTDILGYDVNSAATLKLIYGDLEAQLNDKPEVKSMIEKLTGTISQLIGYELLEHEMDLEEDGIIVQELFKALGIKIETTSDTIFEKVMEITQVHRYLSKKKLLIFINACTYLTEDEVQQVVEYISLNNVDVLFLEQRVVQNRFQYILDENFYLSYEKA
notes: Csn2 of the Enterococcus faecalis type II-A CRISPR-Cas system, full-length gene amplified from E. faecalis genomic DNA; Homotetramer ring with a central channel for dsDNA; also called EfaCsn2; Csn2 tetramer; source: E. coli BL21 Star (DE3), purified (Ni-NTA, TEV cleavage, Superdex 200 SEC); not shown: His6, N-terminal, cleaved; MBP, N-terminal, cleaved
On to B3, for which the “stoichiometry N” value in series [2] came out at 4. In addition, in series [3], the binding result is on record as “binds”.
